These results are taken from a protein production outcome set (Wang et al. 2014).

This series in a line: label from the status in PepcDB records.
Consider “MSFGNEKGQDIIHRKEVEFFVKNLKDYFSNINKYVVILWDEEGIILEFKENGGNLLGYTPEQIEGKKWPDILTDGKDKEQTTEINKKLVNSKIVRYYINSIKDVNGTSKIFLWCNLKLENVQSDKKIFLSVGFNLDSIDNLKEKTDESKFELDTLNEKKENLEFKVTKDDLILKQKDDTIRDYKSKLEFLAFYDELTGLPNKNSLIRWLNLKVSQMDCIDTYLIFLEVRDLEKLNVTYGYDLVDELIIHISKRIKDIAGEGNKAFKIGFDRFAIICKSENISDFIERMLSQLLLPYNVNGNLIRVNFNIGAAQIENSNEAAANLMRRCDLALIKAKEEGLNEYVIFKPSIEIQTLKEGILERELRNGIELNEFIVFYQPFVKLENDKICGFEALLRWYYLKSVFVSPLEFIPVAEKYGLIIDLGNMVLKQSLKAGKILKKYYDDEFTISINISPKQFIDKRFVKNTIEILENEKLQDIRLRFEITEKVAIENIDYTIRIMNEFKKYNVTFALDDFGVEYSSLNYLRKLPIEAVKIDKSFVQDINDHDTYFIVETIVKLCKKLNLKTVIEGVETQRQYQIIKELGCDYAQGYFIAKPLPINELINLVGKYKILE”, for which the protein production entry is “failed”.

Take “MKEKVVLAYSGGLDTSVILKWLCEKGFDVIAYVANVGQKDDFVAIKEKALKTGASKVYVEDLRREFVTDYIFTALLGNAMYEGRYLLGTAIARPLIAKRQVEIAEKEGAQYVAHGATGKGNDQVRFELTYAALNPNLKVISPWKDPEFLAKFKGRTDLINYAMEKGIPIKVSKKRPYSEDENLMHISHEAGKLEDPAHIPDEDVFTWTVSPKDAPDEETLLEIHFENGIPVKVVNLKDGTEKTDPLELFEYLNEVGAKNGVGRLDMVENRFIGIKSRGVYETPGATILWIAHRDLEGITMDKEVMHLRDMLAPKFAELIYNGFWFSPEMEFLLAAFRKAQENVTGKVTVSIYKGNVMPVARYSPYSLYNPELSSMDVEGGFDATDSKGFINIHALRLKVHQLVKKGYQR”: the protein production entry was “not failed”.

Regarding “LERDEQIRLQDDFLFRSQFNIGNIGIAITGIDQKWIKVNPRLCQMLKYSEDELLHMTWKQLTHPDDLDADVAKFEQMLAGNIDNYELDKRFIAKNGSLVYTHMTVACKRTNHQVLLVISGYLDVTAQTLADRE”, the protein production result was “failed”.

Regarding “IDRSTHFALRYRTLCHQQAQFKSPLRGLRGTRASLIPHQLHIAAEVGNRVNPRVLLADEVGLGKTIEAGMILQNQLFAEKVQRVLIIVPETLQHQWLVEMLRRFNLHFALFDEERCNDFDLDAVNPFTTESLIICSLNWLETHPNRVELVLNAQFDCLIVDEAHHLVWSETSPSTAYLLVEQLARIIPSVLLLTATPE”, the protein production entry was “failed”.

With “MAVERPGYLRIAAELRKRISSGEFGIGDQIPTLPALAEEYGVLETTVRNALALLRNEGLIETRARAGTRVRERPPIHRLTADRYRNKAGVPSTPFTRDQGIGWSEYRLDKKYEQVEATMELAALFECEVGEPLLARHFVFHDNDQPTQMSVSYLRWSDVEGSPVADPIHEPWPGGTQAQLASIGIRVTEITESFTCGMPTDHESKTLKIGSGVPVLRYTRRHIAEDGRIVEVAHPIVRRGDTTVVDFVIKLD”, the protein production entry was “failed”.

Take “MTAPAICNTTETVHGIATSLGAVARQASLPRIVGTVVGITVLVVVALLVPVPTAVELRDWAKSLGAWFPLAFLLVHTVVTVPPFPRTAFTLAAGLLFGSVVGVFIAVVGSTASAVIAMLLVRATGWQLNSLVRRRAINRLDERLRERGWLAILSLRLIPVVPFAAINYAAGASGVRILSFAWATLAGLLPGTAAVVILGDAFAGSGSPLLILVSVCTGALGLTGLVYEIRNYRRQHRRMPGYDDPVREPALI”: the protein production entry was “failed”.

Take “MSSFFTGKDDSAVEELLSQAKDQYVLEQVAKINCSGFTDDTALPTNPETRLRRLKSLPVSRTDSVSSSPKKLLSHSNSMASHPEKKYRGNVSSVSSFSIQVGKSCPLDSSVEETQIFSKTKRNQSVKSRGGLGESSGSKRIGSSSSRFSCGNVSSTGSSSSRFSREGNISTATKTLKLPC”: the protein production entry was “not failed”.

Turning to “MLIRKADAQDLDAICRLAAQINRQHHQALPELFLAAADADADRAFWRARLEGEDSVLLVAEREGAVLAFLTAQLQSSPPLPFLQARRICRIGTIVVDEACQGQGIGSRLLAAAEDWGRRQDADELRLEVMQFNQGALAFYARHGLAAQSQIMSKSLAGAAR”, the protein production result is “failed”.

In the case of “MTGQAAGPAAGPAAGQATKHAGGRRPGETRTREAILTAARVCFAERGFDATSLRRIAETAGVDQSLVHHFYGTKENLFLQALELPGKIEEAITAAAQGGLDGIGERVVRAHLSVWDDVSSRPALMTMVRSAAIHRAAAARLRETATGILARALGGVITGEDAMLRTSMVATQLVGLAMMRYVAHLEPLASADTDTVARHYGRAVQAIVTDRD”, the protein production result is on record as “not failed”.

Regarding “MTNIFASWGLIKLEIVRALRNRKFLFFSVIYPSALFLLIAGSADSTTKVEGTGLSLPTFFMVSMASFGALTAVLMGNSERIAKERESGWVRQLRLTTLPGRGYVLAKTASAAVISLPSILIVFVVAAAVKNVRLDAWQWLALTGTIWVGSLVFAALGVAIGYLATGDAVRPITMIVYFGLSMLGGLWMPTTTFPDWLQSIAKWLPTHAYAALGQAIELGNAPQAKDIAILAVSFVLFAGGAAWLYRKDTLKA”, the protein production entry is listed as “failed”.

As to “LSQAEQDKLDAAVFRQLLQHLDQHKEVQNIDLMILADFCRNCLCKWYAAEAEKQGLDLNIDDARERVYGMTYDEWKANHQPPATPEQLAAFEAKTKSK”, the protein production result is “failed”.

As for “MEQTEHIPPPGLVAQLRERSLLQTGDRFETLYGGRTNRVWRLHGPADDLVVKLYRRDFDNPLFGNDAQLEALCLDRLEGTGLAPQLRASGALGQEAWVVYDHAPGAPWRTDPAIAARMLANLHRRALDIPAPAGCNGSAAIRTHAEAILSRCDQPDRELLLKARPHTATIAPGPACLIHGDPVAGNLLVSGDQAILIDWQCPAIGDPAEDLAMFLSPAMQQVYRGAPLTAAEEQQFLSAYDNAGTVARYLSLKPWFHWRMAAYCRWRARNGAPDYAPAFELEHAALAAC”, the protein production result is given as “failed”.

On to “MTRKKLNLSYITNESMRKATFNKRKKGLVKKIHELSVLCGIEACAVIYSPFNSNPEVWPSNSEVKNVMENFEMLTKLEQEKKMVSHEGFIRQNISKTMESNNKKMIDNAERTMKEAMFQLLSGKGEKLNLTDRNREDLCKYIDQYLKELYHHKNKTINQSHIEPGESSGATNAMTPTSVVENPNFNHLSHNQYQYQQQFGYPILVQDGIYNPSQIQNQHEEWLDDHMMNHSKEISHPLMDDNNFYYQQP”, for which the protein production entry was “not failed”.

For “MNNVSEERVAEMIWDAVSEGATLKDVHGIPQDMMDGLYAHAYEFYNQGRLDEAETFFRFLCIYDFYNPDYTMGLAAVCQLKKQFQKACDLYAVAFTLLKNDYRPVFFTGQCQLLMRKAAKARQCFELVNERTEDESLRAKALVYLEALKTAETEQHSEQEKELEHHHHHH”, the protein production result was “not failed”.

On to “MSFDRPEIYSAPVLQGESPNDDDNTEIIKSFKNFILEFRLDSQFIYRDQLRNNILVKNYSLTVNMEHLIGYNEDIYKKLSDEPSDIIPLFETAITQVAKRISILSRAQSANNNDKDPENTSMDTDSLLLNSLPTFQLILNSNANQIPLRDLDSEHVSKIVRLSGIIISTSVLSSRATYLSIMCRNCRHTTSITINNFNSITGNTVSLPRSCLSTIESESSMANESNIGDESTKKNCGPDPYIIIHESSKFIDQQFLKLQEIPELVPVGEMPRNLTMTCDRYLTNKVIPGTRVTIVGIYSIYNSKNGAGSGRSGGGNGGSGVAIRTPYIKILGIQSDVETSSIWNSVTMFTEEEEEEFLQLSRNPKLYEILTNSIAPSIFGNEDIKKAIVCLLMGGSKKILPDGMRLRGDINVLLLGDPGTAKSQLLKFVEKVSPIAVYTSGKGSSAAGLTASVQRDPMTREFYLEGGAMVLADGGVVCIDEFDKMRDEDRVAIHEAMEQQTISIAKAGITTVLNSRTSVLAAANPIYGRYDDLKSPGDNIDFQTTILSRFDMIFIVKDDHNEERDISIANHVINIHTGNANAMQNQQEENGSEISIEKMKRYITYCRLKCAPRLSPQAAEKLSSNFVTIRKQLLINELESTERSSIPITIRQLEAIIRITESLAKLELSPIAQERHVDEAIRLFQASTMDAASQDPIGGLNQASGTSLSEIRRFEQELKRRLPIGWSTSYQTLRREFVDTHRFSQLALDKALYALEKHETIQLRHQGQNIYRSGV”, for which the protein production entry was “failed”.

Regarding “MQEIIIQVMNQFGYFGVAFLIMIENIFPPIPSEVILTFGGFMTTYSELGIIGMIIAATIGSVLGALILYFVGRLLSVERLEKLVSGRLGKVLRLKPEDITKAEKWFLKRGYATIFFCRFIPLIRSLISIPAGSAKMKLPSFLILTTLGTLIWNIVLVCLGAALGDNWEMIAGILDSYSSVVVVILGIIFILAILIFVKKRFFPKNKNYSSDTEK”, the protein production result is “not failed”.

In the case of “MKKTPIYVEISIQAEMERLWRYTQDPTLHRQWDLRFTDITYLKRRPGEPQRFLYETRIGFGLEHHHHHH”, the protein production result was “not failed”.

For “MDLNFSKEEIAFRDEVRQFFKDNVPAKTRQKLIEGRHNTKEEMVEWYRILNKKGWAVTHWPKEYGGTGWSSVQHYIFNEELQAAPAPQPLAFGVSMVGPVIYTFGSEEQKKRFLPRIANVDDWWCQGFSEPGSGSDLASLKTKAEKKGDKWIINGQKTWTTLAQHADWIFCLCRTDPAAKKQEGISFILVDMKTKGITVRPIQTIDGGHEVNEVFFDDVEVPLENLVGQENKGWDYAKFLLGNERTGIARVGMSKERIRRIKQLAAQVESGGKPVIEDPKFRDKLAAVEIELKALELTQLRVVADEGKHGKGKPNPASSVLKIKGSEIQQATTELLMEVIGPFAAPYDVHGDDDSNETMDWTAQIAPGYFNNRKVSIYGGSNEIQRNIICKAVLGL”, the protein production entry is listed as “failed”.

For “MNYDRYYTCDLVNGEGVRVTLFVTGCAHACDGCHNRSTWDRKSGRPFTPEAREELLRHCASHDGLSLSGGDPLLPANRDEILALCRMFKQRYPQKNIWLWTGYDYEEVRELEILQFVDVLIDGRYRQDLPTSKPWRGSDNQRLIRLGAGSGAAVAAVGAADVIAFEA”, the protein production result is recorded as “failed”.

As to “MPSFRRSVAAVVTALPLIAGGCAHRPAVETASPEAVQWNLSDGAETTFYYLMLDQAARSDNTRDAIEAIENLIRLSPTARVYNDSGSFLLSRKEPDLARDILTRGVAAHPDDLGLTLLLAESYLDLDRNDEAIALLRAYNAKHPKDDEARQELAQLLVKTRRYEEADKLILSIGETSRTSLLRYYHARALMGLNRLTEATAQLRKAVKASPDFLEAWAELAYVYELRKNYVEAEKIYEQILALDEGNQDVWLRLVAINIKLNNPVKAYELARQGPETFGFMLTAATLFLDDRFFEQAEGLLLAVKDSPGAPEEVYFFLAVLAYEGQRDTDATLSWLLEVRPTNKYYDRALRLRSQLLYEKGDLEAALRTAREGRETFPEQRDFREMEAQLLVNMGRSEEALRVIDKAADRWPDDSGLLFMRALILDDRGAKDAAFAAMEEVIKASPNHAQALNYVGYTLAEQERDLTRAVSLLERANTLSPDNPFILDSLAWAYFKAGRIPEAWKAISRAIELNAPDPIIWEHYGDIATAMGQKNTARRAYRKALSMNPQNPDAIKAKLDKK”, the protein production result is “failed”.

For “MSYSPSLKEIIAILQKYTSKNYQSNCKTRPDGKLELSLNGVFEEIVKTPGKTRYVTHKQLDQKLKDFKQDLMVELHDTFATKTDLKESEARINQKLEALIQIVMVQGEQIKVHGEQINKLTQAVEKQGEKIEAQGQQIQKVNETLNFVVESLGSIHKRLDSMEGRLDSMENRLDKLESKLEHHHHHH”, the protein production entry was “not failed”.

For the sequence “VYLDFENHIKEIQNEIELALIRGDEDAKEILEKRLDKEVKSIYSNLTDFQKLQLARHPDRPYAMDYIDLILKDKYEVFGDRHYNDDKAIVCFVGKIDNVPVVVIGEEKGRGTKNKLLRNFGMPNPCGYRKALKMAKFAEKFNL”, the protein production entry is “failed”.
